Measured values published in patent publication US20150010495A1 (GLYCOTOPE, published 2015).

Target: T1, […]n, n = 5 (100-mer), non-glycosylated (human)
T1 construct: non-glycosylated MUC1 peptide with five tandem repeats in series
Assay: peptide ELISA, OD 492 nm; limit of the class, member by Table 2; reference: 20-mer

ratio of the optical density 100-mer/20-mer: > 3
B1: HMFG-1 (antibody, V domains shown)
VH: QVQLVQSGAEVKKPGASVKVSCKASGYTFSAYWIEWVRQAPGKGLEWVGEILPGSNNSRYNEKFKGRVTVTRDTSTNTAYMELSSLRSEDTAVYYCARSYDFAWFAYWGQGTLVTVSS
VL: DIQMTQSPSSLSASVGDRVTITCKSSQSLLYSSNQKIYLAWYQQKPGKAPKLLIYWASTRESGVPSRFSGSGSGTDFTFTISSLQPEDIATYYCQQYYRYPRTFGQGTKVEIKR
